Biological target: human β1-adrenergic receptor (human, UniProt P08588 1-477)
Test: radioligand saturation binding, transfected CHO-K1

human β1-adrenergic receptor, sequence (P08588 whole entry): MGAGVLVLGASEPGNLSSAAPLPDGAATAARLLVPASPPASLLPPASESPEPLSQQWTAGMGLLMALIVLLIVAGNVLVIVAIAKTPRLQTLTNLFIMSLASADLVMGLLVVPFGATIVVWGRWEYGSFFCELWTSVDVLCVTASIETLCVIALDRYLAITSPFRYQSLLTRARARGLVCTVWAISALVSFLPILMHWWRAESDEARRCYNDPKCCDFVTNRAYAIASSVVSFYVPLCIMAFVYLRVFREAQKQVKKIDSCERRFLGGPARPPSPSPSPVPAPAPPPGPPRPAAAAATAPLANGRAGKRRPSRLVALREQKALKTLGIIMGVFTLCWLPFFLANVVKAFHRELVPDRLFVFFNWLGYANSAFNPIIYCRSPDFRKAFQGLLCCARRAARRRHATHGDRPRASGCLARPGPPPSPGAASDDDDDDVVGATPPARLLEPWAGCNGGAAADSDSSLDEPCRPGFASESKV

B1: recombinant human zinc-α2-glycoprotein (ZAG) (ligand)
chain: QENQDGRYSLTYIYTGLSKHVEDVPAFQALGSLNDLQFFRYNSKDRKSQPMGLWRQVEGMEDWKEDSQLQKAREDMETLKDIVEYYNDSNGSHVLQGRFGCEIENNRSSGAFWKYYYDGKDYIEFNKEIPAWVPFDPAAQITKQKWEAEPVYVQRAKAYLEEECPATLRKYLKYSKNILDRQDPPSVVVTSHQAPGEKKKLKCLAYDFYPGKIDVHWTRAGQVQEPELRGDVLHNGNGTYQSWVVVAVPPQDTAPYSCHVQHSSLAQPLVVPWEAS
modifications: 125I label (iodo bead labelling) in the membrane binding studies; labelled residues not stated
Kd: 493 nM

From US20240301022A1 (published 2024)
